± gives the uncertainty stated by the source.
Assay: self-splicing fitness, log relative to wild type (ln ratio); higher = more splicing; Tetrahymena group I intron in knt gene, E. coli kanamycin selection, DiMSum; sequences stand for … in CUCUCU…GGAGGGAAAAGUUAUCAGGCAUGCACCUGGUAGCUAGUCUUUAAACCAAUAGAUUGCAUCGGUUUAAAAGGCAAGACCGUCAAAUUGCGGGAAAGGGGUCAACAGCCGUUCAGUACCAAGUCUCAGGGGAAACUUUGAGAUGGCCUUGCAAAGGGUAUGGUAAUAAGCUGACGGACAUGGUCCUAACCACGCAGCCAAGUCCUAAGUCAACAGAUCUUCUGUUGAUAUGGAUGCAGUUCACAGACUAAAUGUCGGUCGGGGAAGAUGUAUUCUUCUCAUAAGAUAUAGUCGGACCUCUCCUUAAUGGGAGCUAGCGGAUGAAGUGAUGCAACACUGGAGCCGCUGGGAACUAAUUUGUAUGCGAAAGUAUAUUGAUUAGUUUUGGAGUACUCGUGGUCG
Procedure, shortened: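 Six replicate transformations of E. coli BL21(DE3) with a pET-22b(+) library were grown overnight at 37°C or 30°C. The library randomised all eight P1ex-region intron nucleotides, the intron lying in the knt kanamycin-resistance gene, and plates were LB agar with or without 25 μg/mL kanamycin plus 100 μg/mL carbenicillin, 50 μM IPTG and 0.2% rhamnose. Pooled colonies were amplicon-sequenced on an Illumina HiSeq 2500, and fitness is the DiMSum error-weighted combination of wild-type-normalised replicate fold changes, kanamycin versus none.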

| Sequence | self-splicing fitness (ln) (30 °C) | self-splicing fitness (ln) (37 °C) |
| --- | --- | --- |
| UCACAGCAAUAUUACGUUCA | -0.499 ± 0.074 | -0.438 ± 0.078 |
| UCACAGCAAUAUUACGUUGC | -4.42 ± 0.23 | -2.95 ± 0.23 |
| UCACAGCAAUAUUACGUUGU | -4.29 ± 0.18 | -2.14 ± 0.12 |
| UCAGAGCAAUAUUACGAAAA | – | -2.13 ± 0.48 |
| UCAGAGCAAUAUUACGACCU | -2.87 ± 0.36 | – |
| UCAGAGCAAUAUUACGAGCG | -4.27 ± 0.36 | -1.23 ± 0.14 |
| UCAGAGCAAUAUUACGAGGC | -1.74 ± 0.43 | – |
| UCAGAGCAAUAUUACGAUGA | -0.825 ± 0.2 | 0.109 ± 0.21 |
| UCAGAGCAAUAUUACGAUUG | -4 ± 0.37 | -2.41 ± 0.24 |
| UCAGAGCAAUAUUACGCAAC | -3.8 ± 0.48 | -1.91 ± 0.29 |
| UCAGAGCAAUAUUACGCACU | -2.95 ± 0.44 | -2.62 ± 0.48 |
| UCAGAGCAAUAUUACGCGCA | -1.19 ± 0.2 | -1.69 ± 0.29 |
| UCAGAGCAAUAUUACGCGGG | -2.22 ± 0.14 | -1.99 ± 0.23 |
| UCAGAGCAAUAUUACGCGUC | -2.62 ± 0.18 | – |
| UCAGAGCAAUAUUACGCUUU | -2.7 ± 0.32 | -2.84 ± 0.48 |
| UCAGAGCAAUAUUACGGCUU | -3.38 ± 0.34 | -2.19 ± 0.35 |
| UCAGAGCAAUAUUACGGGAU | -3.39 ± 0.47 | -2.58 ± 0.48 |
| UCAGAGCAAUAUUACGGGGA | -1.48 ± 0.11 | -1.1 ± 0.13 |
| UCAGAGCAAUAUUACGGGUG | -3.2 ± 0.2 | -1.46 ± 0.14 |
| UCAGAGCAAUAUUACGGUAC | -2.06 ± 0.3 | – |
| UCAGAGCAAUAUUACGGUCC | -2.18 ± 0.24 | – |
| UCAGAGCAAUAUUACGGUGA | -0.792 ± 0.084 | -0.193 ± 0.1 |
| UCAGAGCAAUAUUACGUACC | -3.69 ± 0.25 | -1.59 ± 0.37 |
| UCAGAGCAAUAUUACGUAUC | -2.86 ± 0.36 | -1.41 ± 0.31 |
| UCAGAGCAAUAUUACGUCCG | -2.17 ± 0.2 | -1.14 ± 0.25 |

| Sequence | self-splicing fitness (ln) (30 °C) | self-splicing fitness (ln) (37 °C) |
| --- | --- | --- |
| UCAGAGCAAUAUUACGUGAA | -2.01 ± 0.15 | -1.2 ± 0.21 |
| UCAGAGCAAUAUUACGUGAC | -3.69 ± 0.28 | -1.9 ± 0.23 |
| UCAUAGCAAUAUUACGCAUU | -2.86 ± 0.14 | -3.04 ± 0.22 |
| UCAUAGCAAUAUUACGCCUU | -3.75 ± 0.4 | -1.52 ± 0.33 |
| UCAUAGCAAUAUUACGCGUG | -2.85 ± 0.12 | -1.67 ± 0.11 |
| UCAUAGCAAUAUUACGCGUU | -3.38 ± 0.27 | -3.03 ± 0.27 |
| UCAUAGCAAUAUUACGCUUC | – | -2.26 ± 0.23 |
| UCAUAGCAAUAUUACGGGGG | -2.69 ± 0.19 | -2.27 ± 0.21 |
| UCAUAGCAAUAUUACGGGUC | -2.94 ± 0.42 | -2.9 ± 0.35 |
| UCAUAGCAAUAUUACGUAGA | -1.88 ± 0.097 | -1.8 ± 0.12 |
| UCAUAGCAAUAUUACGUCAU | -2.74 ± 0.29 | -3.16 ± 0.27 |
| UCAUAGCAAUAUUACGUCUC | -1.43 ± 0.32 | – |
| UCAUAGCAAUAUUACGUGAU | -3.82 ± 0.17 | -2.62 ± 0.2 |
| UCAUAGCAAUAUUACGUGCG | -1.26 ± 0.11 | -0.279 ± 0.1 |
| UCAUAGCAAUAUUACGUGGC | – | -2.73 ± 0.43 |
| UCAUAGCAAUAUUACGUGGU | -3.42 ± 0.16 | -2.8 ± 0.16 |
| UCCAAGCAAUAUUACGAAGA | -0.503 ± 0.086 | -0.326 ± 0.087 |
| UCCAAGCAAUAUUACGAAGU | -1.09 ± 0.14 | -1.57 ± 0.15 |
| UCCAAGCAAUAUUACGACAC | -2.35 ± 0.31 | -1.42 ± 0.38 |
| UCCAAGCAAUAUUACGACUU | -3.57 ± 0.17 | -2.54 ± 0.18 |
| UCCAAGCAAUAUUACGAGGG | -3.08 ± 0.2 | -2.31 ± 0.31 |
| UCCAAGCAAUAUUACGAGUG | -2.75 ± 0.13 | -2.03 ± 0.11 |
| UCCAAGCAAUAUUACGCAGG | -3.56 ± 0.43 | -2.05 ± 0.26 |
| UCCAAGCAAUAUUACGCAUG | -4.8 ± 0.31 | -2.27 ± 0.19 |
| UCCAAGCAAUAUUACGCGGG | -3.94 ± 0.24 | -3.8 ± 0.36 |

| Sequence | self-splicing fitness (ln) (30 °C) | self-splicing fitness (ln) (37 °C) |
| --- | --- | --- |
| UCCAAGCAAUAUUACGCGGU | -2.56 ± 0.13 | -1.92 ± 0.16 |
| UCCAAGCAAUAUUACGCUUA | -3.43 ± 0.18 | -1.86 ± 0.11 |
| UCCAAGCAAUAUUACGGCCU | -2.33 ± 0.29 | -2.6 ± 0.27 |
| UCCAAGCAAUAUUACGGCUA | -1.98 ± 0.14 | -0.476 ± 0.11 |
| UCCAAGCAAUAUUACGGCUU | -3.94 ± 0.4 | -1.53 ± 0.25 |
| UCCAAGCAAUAUUACGGUCC | -2.7 ± 0.37 | -1.04 ± 0.22 |
| UCCAAGCAAUAUUACGUAUC | -4.43 ± 0.27 | -1.93 ± 0.16 |
| UCCAAGCAAUAUUACGUCAC | -3.72 ± 0.39 | -3.28 ± 0.43 |
| UCCAAGCAAUAUUACGUCUU | -3.92 ± 0.19 | -1.46 ± 0.14 |
| UCCAAGCAAUAUUACGUGAG | -2.37 ± 0.098 | -0.996 ± 0.097 |
| UCCAAGCAAUAUUACGUGGG | -3.89 ± 0.23 | -2.71 ± 0.18 |
| UCCAAGCAAUAUUACGUUGG | -2.99 ± 0.11 | -1.89 ± 0.14 |
| UCCCAGCAAUAUUACGAAAG | -3.84 ± 0.33 | -3.06 ± 0.17 |
| UCCCAGCAAUAUUACGACCG | -3.22 ± 0.3 | -3.01 ± 0.31 |
| UCCCAGCAAUAUUACGAUGU | -2.1 ± 0.088 | -1.2 ± 0.12 |
| UCCCAGCAAUAUUACGCCAA | -2.7 ± 0.33 | -1.63 ± 0.3 |
| UCCCAGCAAUAUUACGCGAC | -4.31 ± 0.29 | -3.36 ± 0.31 |
| UCCCAGCAAUAUUACGCGAU | -3.29 ± 0.21 | -2.64 ± 0.21 |
| UCCCAGCAAUAUUACGCGUG | -3.49 ± 0.18 | -2.34 ± 0.2 |
| UCCCAGCAAUAUUACGCGUU | -1.11 ± 0.075 | -0.493 ± 0.089 |
| UCCCAGCAAUAUUACGCUCC | -1.78 ± 0.22 | -0.443 ± 0.3 |
| UCCCAGCAAUAUUACGCUGA | -2.26 ± 0.12 | -3.02 ± 0.21 |
| UCCCAGCAAUAUUACGGAAA | -2.01 ± 0.19 | -0.716 ± 0.13 |
| UCCCAGCAAUAUUACGGAAC | -4.36 ± 0.27 | -2.65 ± 0.18 |
| UCCCAGCAAUAUUACGGACU | -2.81 ± 0.11 | -1.21 ± 0.096 |

| Sequence | self-splicing fitness (ln) (30 °C) | self-splicing fitness (ln) (37 °C) |
| --- | --- | --- |
| UCCCAGCAAUAUUACGGAGA | -1.18 ± 0.084 | -0.484 ± 0.11 |
| UCCCAGCAAUAUUACGGCGA | -0.651 ± 0.063 | -0.335 ± 0.078 |
| UCCCAGCAAUAUUACGGCUU | -2.62 ± 0.14 | -1.65 ± 0.17 |
| UCCCAGCAAUAUUACGGUCU | -1.83 ± 0.11 | -0.794 ± 0.11 |
| UCCCAGCAAUAUUACGUAAG | -3.88 ± 0.18 | -1.97 ± 0.17 |
| UCCCAGCAAUAUUACGUACU | -3.77 ± 0.19 | -0.776 ± 0.14 |
| UCCGAGCAAUAUUACGACUU | -2.69 ± 0.33 | -2.98 ± 0.43 |
| UCCGAGCAAUAUUACGAGGG | -4.27 ± 0.25 | -1.93 ± 0.22 |
| UCCGAGCAAUAUUACGAUUC | -2.88 ± 0.43 | -2.79 ± 0.48 |
| UCCGAGCAAUAUUACGCAAC | -2.57 ± 0.3 | -1.66 ± 0.33 |
| UCCGAGCAAUAUUACGCAGG | -3.19 ± 0.17 | -1.88 ± 0.19 |
| UCCGAGCAAUAUUACGCAUC | -3.11 ± 0.41 | – |
| UCCGAGCAAUAUUACGCCAC | -2.05 ± 0.4 | – |
| UCCGAGCAAUAUUACGCCGU | -2.21 ± 0.22 | – |
| UCCGAGCAAUAUUACGCGCA | -0.129 ± 0.15 | -0.252 ± 0.14 |
| UCCGAGCAAUAUUACGCGGC | -3.97 ± 0.35 | -2.46 ± 0.29 |
| UCCGAGCAAUAUUACGCUCG | -3.71 ± 0.21 | -3.08 ± 0.37 |
| UCCGAGCAAUAUUACGCUGU | -3.1 ± 0.19 | -0.655 ± 0.16 |
| UCCGAGCAAUAUUACGGCAC | -2.01 ± 0.18 | -2.76 ± 0.24 |
| UCCGAGCAAUAUUACGGGUU | -3.41 ± 0.14 | -1.9 ± 0.15 |
| UCCGAGCAAUAUUACGGUGC | -3.26 ± 0.19 | -2.62 ± 0.22 |
| UCCGAGCAAUAUUACGUAAA | -2.8 ± 0.28 | – |
| UCCGAGCAAUAUUACGUAAC | – | -0.912 ± 0.35 |
| UCCGAGCAAUAUUACGUGAA | -3.29 ± 0.17 | -1.16 ± 0.15 |

— the supplement of paper PMC7877785
